Like-named read-outs stand apart in the source and are kept apart here.
How the values were obtained:
[1] = molecular target: GST-STAT3 (16 kDa monovalent antigen, Creative BioMart #STAT3-1476H) (UniProt P40763)
[2] = molecular target: GST-STAT3 (16 kDa monovalent antigen, Creative BioMart #STAT3-1476H) (UniProt P40763); remark: listed apart in the source
[3] = molecular target: GST-STAT3 (16 kDa monovalent antigen, Creative BioMart #STAT3-1476H) (UniProt P40763); remark: listed apart in the source
[4] = molecular target: endogenous STAT3 in human cancer cell lysates (MDA-MB-231, PANC-1, DU145) (human, UniProt P40763 2-770)
Chain of endogenous STAT3 in human cancer cell lysates (MDA-MB-231, PANC-1, DU145) (P40763 2-770 limits assumed): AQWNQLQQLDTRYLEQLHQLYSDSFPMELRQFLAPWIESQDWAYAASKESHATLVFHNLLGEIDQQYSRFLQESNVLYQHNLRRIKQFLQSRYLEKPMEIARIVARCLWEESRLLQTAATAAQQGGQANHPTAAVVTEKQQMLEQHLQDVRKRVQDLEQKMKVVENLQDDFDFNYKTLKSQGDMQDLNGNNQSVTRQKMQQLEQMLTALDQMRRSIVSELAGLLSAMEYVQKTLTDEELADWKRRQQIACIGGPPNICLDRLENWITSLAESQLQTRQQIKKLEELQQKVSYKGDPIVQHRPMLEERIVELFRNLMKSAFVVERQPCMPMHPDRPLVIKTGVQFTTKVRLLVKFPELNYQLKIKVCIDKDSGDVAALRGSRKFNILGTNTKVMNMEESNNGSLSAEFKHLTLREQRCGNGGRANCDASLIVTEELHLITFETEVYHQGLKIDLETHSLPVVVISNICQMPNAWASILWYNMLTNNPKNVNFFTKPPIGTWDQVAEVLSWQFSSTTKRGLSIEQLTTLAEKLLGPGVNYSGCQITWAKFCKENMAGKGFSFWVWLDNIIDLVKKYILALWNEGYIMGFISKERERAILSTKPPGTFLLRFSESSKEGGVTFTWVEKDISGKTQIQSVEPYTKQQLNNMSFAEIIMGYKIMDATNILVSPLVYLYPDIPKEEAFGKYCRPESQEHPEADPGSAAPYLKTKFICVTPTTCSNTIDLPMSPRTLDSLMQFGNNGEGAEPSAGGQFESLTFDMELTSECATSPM

anti-KRAS (negative control) (VHH) was tested, and the Kd [1] was 4.32 nM, the koff [1] was 0.000386 s⁻¹ and the kon [1] was 89300 M⁻¹ s⁻¹. The Kd [2] was 29.2 nM, the koff [2] was 0.00048 s⁻¹ and the kon [2] was 16500 M⁻¹ s⁻¹. The Kd [3] was 67.5 nM, the koff [3] was 0.000801 s⁻¹ and the kon [3] was 11900 M⁻¹ s⁻¹.

B1: STAT3 VHH13 (SEQ ID NO:3) produced and isolated from mammalian cells (VHH)
VHH: HVQLVESGGGSVQAGGSLRLSCAASGANGGRSCMGWFRQVPGKEREGVSGISTGGLITYYADSVKGRFTISQDNTKNTLYLQMNSLKPEDTAMYYCATSRFDCYRGSWFNRYMYNSWGQGTQVTVSS
B1: binds [4].

— US20160115226A1 (SINGH MOLECULAR MEDICINE, published 2016)
